Assay results published in patent publication US10941182 (Amgen, dated 2021).
Starred links: 1 amine or outer side, 2 acyl side, 3 side chain; linkers in the order of their positions; H or OH if unused. Non-standard residues stand in square brackets, D forms with d. Primed or numbered codes have the meaning given here. *: point of attachment. AC4Abu = α-carboxy-4-aminobutyric acid, O=C(C(CCN[*:1])C(=O)[*:3])[*:2]; dBip = N[C@H](Cc1ccc(-c2ccccc2)cc1)C(=O)O; Oic = O=C(O)[C@@H]1C[C@@H]2CCCC[C@@H]2N1; Phe(4-Cl) = N[C@@H](Cc1ccc(Cl)cc1)C(=O)O; Phe(4-I) = N[C@@H](Cc1ccc(I)cc1)C(=O)O; 2Nal = N[C@@H](Cc1ccc2ccccc2c1)C(=O)O; NMehArg = CN[C@@H](CCCCNC(=N)N)C(=O)O; NMeR = CN[C@@H](CCCNC(=N)N)C(=O)O; Tridecanoyl = CCCCCCCCCCCCC(=O)*; hArg = N=C(N)NCCCC[C@H](N)C(=O)O; Cha = N[C@@H](CC1CCCCC1)C(=O)O; NMeL = CN[C@@H](CC(C)C)C(=O)O; αMeL = CC(C)C[C@](C)(N)C(=O)O; αMeP = C[C@@]1(C(=O)O)CCCN1; AC4Abu″ = not defined here; Nle = CCCC[C@H](N)C(=O)O; Pip′ = not defined here; AEEA = NCCOCCOCC(=O)O; Aib = CC(C)(N)C(=O)O

T1: rat APJ receptor (rat, UniProt Q9JHG3 1-377)
T1 sequence (looked up): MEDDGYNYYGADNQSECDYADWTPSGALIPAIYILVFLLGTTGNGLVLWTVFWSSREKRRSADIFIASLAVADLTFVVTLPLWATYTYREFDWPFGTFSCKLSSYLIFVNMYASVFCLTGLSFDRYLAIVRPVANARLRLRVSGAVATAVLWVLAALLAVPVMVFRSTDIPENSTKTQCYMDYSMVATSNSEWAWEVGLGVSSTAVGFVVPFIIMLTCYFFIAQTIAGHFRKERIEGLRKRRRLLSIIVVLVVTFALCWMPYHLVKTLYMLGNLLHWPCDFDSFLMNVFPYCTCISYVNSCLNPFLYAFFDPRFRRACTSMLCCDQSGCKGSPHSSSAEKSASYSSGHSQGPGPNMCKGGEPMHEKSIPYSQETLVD

T2: rat APJ receptor (rat, UniProt Q9JHG3 1-377)
T2 sequence (looked up): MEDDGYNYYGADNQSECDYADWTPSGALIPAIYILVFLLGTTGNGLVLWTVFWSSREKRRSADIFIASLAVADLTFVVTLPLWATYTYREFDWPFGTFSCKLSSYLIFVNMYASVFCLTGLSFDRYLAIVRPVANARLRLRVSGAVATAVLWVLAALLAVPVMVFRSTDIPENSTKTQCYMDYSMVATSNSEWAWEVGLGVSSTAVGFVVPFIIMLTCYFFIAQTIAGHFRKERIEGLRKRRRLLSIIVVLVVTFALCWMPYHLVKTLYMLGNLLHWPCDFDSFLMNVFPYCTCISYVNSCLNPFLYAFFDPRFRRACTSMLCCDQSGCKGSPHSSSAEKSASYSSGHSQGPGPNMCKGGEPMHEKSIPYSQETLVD


biological target: T1, rat APJ receptor; test: cell-based or functional assay

Binder | EC50 Rat APJ Receptor [nM]
Ac-[hArg][dR]Q[hArg]E[dR][NMeL]SHKG[Oic][Phe(4-I)]P[dBip]-OH [SEQ ID NO: 78] | 0.871
QRPRLSHKGPXPF ({Acetyl-NH}Q[hArg]P[NMeArg][aMeLeu]SHKGP[Nle]P[4-Cl-F]{COOH}) [SEQ ID NO: 71] | 2.75
Ac-QR[NMehArg]LSHKGP[Nle]P[Phe(4-Cl)]-OH (SMILES CCCC[C@H](NC(=O)[C@@H]1CCCN1C(=O)CNC(=O)[C@H](CCCCN)NC(=O)[C@H](Cc1c[nH]cn1)NC(=O)[C@H](CO)NC(=O)[C@H](CC(C)C)NC(=O)[C@H](CCCCNC(=N)N)N(C)C(=O)[C@H](CCCNC(=N)N)NC(=O)[C@H](CCC(N)=O)NC(C)=O)C(=O)N1CCC[C@H]1C(=O)N[C@@H](Cc1ccc(Cl)cc1)C(=O)O) [SEQ ID NO: 73] | 47.2
QRPRLSHKGPXPF ({Acetyl-NH}QrP[hArg][aMeLeu]SHKGP[Nle]P[4-Cl-F]{COOH}) [SEQ ID NO: 70] | 9.74
QRPRLSHKGPXPF ({Acetyl-NH}QRP[NMeArg]LSHKGP[Nle]P[4-Cl-F]{COOH}) [SEQ ID NO: 68] | 0.384
XXXQRPRLSHKGPXPF ({AdpA}[AC4Abu][Aeea][Aeea]QrP[hArg][aMeLeu]SHKGP[Nle]P[4-Cl-F]{COOH}) [SEQ ID NO: 515] | 5.94
XXXQRPRLSHKGPXPF ({AdpA}[AC4Abu][Aeea][Aeea]QRP[NMeArg]LSHKGP[Nle]P[4-Cl-F]{COOH}) [SEQ ID NO: 461] | 1
XXXQRPRLSHKGPXPF ({Butanoyl}[AC4Abu][Aeea][Aeea]QRP[NMeArg]LSHKGP[Nle]P[4-Cl-F]{COOH}) [SEQ ID NO: 491] | 0.453
XXXQRPRLSHKGPXPF ({DDDA}[AC4Abu][Aeea][Aeea]QRP[NMeArg]LSHKGP[Nle]P[4-Cl-F]{COOH}) [SEQ ID NO: 510] | 0.903
KLRKHNCLQRRCMPLHSRVPFP [SEQ ID NO: 15] | 16.1
XXXQRPRLSHKGPXPF ({hexanoyl}[AC4Abu][Aeea][Aeea]QrP[hArg][aMeLeu]SHKGP[Nle]P[4-Cl-F]{COOH}) [SEQ ID NO: 514] | 6.69

biological target: T2, rat APJ receptor; test: cell-based or functional assay

Binder | EC50 Rat APJ Receptor (GTPγS assay) [nM]
Tridecanoyl-[AC4Abu″][AEEA][AEEA]QRP[NMeR][Cha]SHKG[Pip′][Nle]P[Phe(4-Cl)]-OH (reading uncertain) [Apelin polypeptide SEQ ID NO: 416] | 0.346
XXXQRPRLSHKGPXPF ({TDA}[AC4Abu][Aeea][Aeea]QRP[NMeArg][NMeLeu]SHKGP[Nle]P[4-Cl-F]{COOH}) [Apelin polypeptide SEQ ID NO: 459] | 0.23
XXXQRPRLSHKGPXPF ({TDA}[AC4Abu][Aeea][Aeea]QRP[NMeArg]L[aMeS]HKGP[Nle]P[4-Cl-F]{COOH}) [Apelin polypeptide SEQ ID NO: 468] | 0.165
XXXQRPRLSHKGPXPF ({TDA}[AC4Abu][Aeea][Aeea]QRP[NMeArg]LS[rHis]KGP[Nle]P[4-Cl-F]{COOH}) [Apelin polypeptide SEQ ID NO: 469] | 1.33
XXXQRPRLSHKGPXPF ({TDA}[AC4Abu][Aeea][Aeea]QRP[NMeArg]LSHKGP[Nle][BhPro][4-Cl-F]{COOH}) [Apelin polypeptide SEQ ID NO: 426] | 0.382
XXXQRPRLSHKGPXPF ({TDA}[AC4Abu][Aeea][Aeea]QRP[NMeArg]LSHKGP[Nle]P[4-Cl-F]{COOH}) [Apelin polypeptide SEQ ID NO: 287] | 0.242
XXXQRPRLSHKGPXPF ({TDA}[AC4Abu][Aeea][Aeea]QrP[NMehArg][aMeLeu]SHKGP[Nle]P[4-Cl-F]{COOH}) [Apelin polypeptide SEQ ID NO: 456] | 0.178
Tridecanoyl-[AC4Abu″][AEEA][AEEA]QRP[NMehArg]LSHKGP[Nle]P[2Nal]-OH (reading uncertain; also: printed as {TDA}[AC4Abu][Aeea][Aeea]QRP[NMehArg]LSHKGP[Nle]P[2Nal]{COOH}) [Apelin polypeptide SEQ ID NO: 471] | 0.0974
Tridecanoyl-[AC4Abu″][AEEA][AEEA][dR][dQ][hArg]P[hArg][Cha]SHKG[Oic][Nle]P[Phe(4-Cl)]-OH (reading uncertain; also: printed as {TDA}[AC4Abu][Aeea][Aeea]rq[hArg]P[hArg][Cha]SHKG[Oic][Nle]P[4-Cl-F]{COOH}) [Apelin polypeptide SEQ ID NO: 481] | 0.341
XXXQXPRLSHKGPXPF ({TDA}[AC4Abu][Aeea][Aeea]Q[Cit]P[NMeArg]LSHKGP[Nle]P[4-Cl-F]{COOH}) [Apelin polypeptide SEQ ID NO: 400] | 0.42
Tridecanoyl-[AC4Abu″][AEEA][AEEA][dQ][hArg][Aib][dR][Cha]SHKG[Oic][Nle]P[Phe(4-Cl)]-OH (reading uncertain; also: printed as {TDA}[AC4Abu][Aeea][Aeea]q[hArg][Aib]r[Cha]SHKG[Oic][Nle]P[4-Cl-F]{COOH}) [Apelin polypeptide SEQ ID NO: 454] | 5.35
XXXQRPRLSHKGPXPF ({TDA}[AC4Abu][Aeea][Aeea]Q[hArg]P[hArg]LSHKGP[Nle]P[4-Cl-F]{COOH}) [Apelin polypeptide SEQ ID NO: 357] | 0.24
Tridecanoyl-[AC4Abu″][AEEA][AEEA]Q[hArg]P[NMeR][Cha]SHKGP[Nle]P[Phe(4-Cl)]-OH (reading uncertain) [Apelin polypeptide SEQ ID NO: 408] | 0.184
XXXQRPRLSHKGPXPF ({TDA}[AC4Abu][Aeea][Aeea]Q[hArg]P[NMehArg]LSHKGP[Nle]P[4-Cl-F]{COOH}) [Apelin polypeptide SEQ ID NO: 483] | 0.229
XXXQRPRLSHKGPXPF ({TDA}[AC4Abu][Aeea][Aeea]Q[NMehArg]P[NMeArg][aMeLeu]SHKGP[Nle]P[4-Cl-F]{COOH}) [Apelin polypeptide SEQ ID NO: 484] | 0.767
XXXQRPRLSHKGPXPF ({TDA}[AC4Abu][Aeea][Aeea]QrP[hArg][aMeLeu]SHKGP[Nle]P[4-Cl-F]{COOH}) [Apelin polypeptide SEQ ID NO: 485] | 0.41
XXXQRPRLSHKGPXPF ({TDA}[AC4Abu][Aeea][Aeea]QRP[hArg]LSHKGP[Nle]P[4-Cl-F]{COOH}) [Apelin polypeptide SEQ ID NO: 355] | 0.06
Tridecanoyl-[AC4Abu″][AEEA][AEEA][dQ]RP[NMeR][αMeL][BhSer]HKG[Oic][Nle][αMeP][Phe(4-Cl)]-OH (reading uncertain) [Apelin polypeptide SEQ ID NO: 518] | 0.444
XXXQRPRLSHKGPXPF ({TDA}[AC4Abu][Aeea][Aeea]QRP[NMeArg][aMeLeu]SHKG[aMePro][Nle]P[4-Cl-F]{COOH}) [Apelin polypeptide SEQ ID NO: 387] | 0.166
XXXQRPRLSHKGPXPF ({TDA}[AC4Abu][Aeea][Aeea]QRP[NMeArg][aMeLeu]SHKGP[Nle]P[4-Cl-F]{COOH}) [Apelin polypeptide SEQ ID NO: 457] | 0.0564
XXXQRPRLSHKGPXPF ({TDA}[AC4Abu][Aeea][Aeea]QRP[NMeArg][BLeu]SHKGP[Nle]P[4-Cl-F]{COOH}) [Apelin polypeptide SEQ ID NO: 458] | 0.12
Tridecanoyl-[AC4Abu][AEEA][AEEA]QRP[NMeR][Cha]SAKG[Oic][Nle]P[Phe(4-Cl)]-OH (SMILES CCCCCCCCCCCCC(=O)NCCC(C(=O)O)C(=O)NCCOCCOCC(=O)NCCOCCOCC(=O)N[C@@H](CCC(N)=O)C(=O)N[C@@H](CCCNC(=N)N)C(=O)N1CCC[C@H]1C(=O)N(C)[C@@H](CCCNC(=N)N)C(=O)N[C@@H](CC1CCCCC1)C(=O)N[C@@H](CO)C(=O)N[C@@H](C)C(=O)N[C@@H](CCCCN)C(=O)NCC(=O)N1[C@H](C(=O)N[C@@H](CCCC)C(=O)N2CCC[C@H]2C(=O)N[C@@H](Cc2ccc(Cl)cc2)C(=O)O)C[C@@H]2CCCC[C@@H]21) [Apelin polypeptide SEQ ID NO: 419] | 0.379
Tridecanoyl-[AC4Abu″][AEEA][AEEA]QRP[NMeR][Cha]SHKG[αMeP][Nle]P[Phe(4-Cl)]-OH (reading uncertain) [Apelin polypeptide SEQ ID NO: 418] | 0.253
